In publication PMC314469, “Protein Interaction Networks by Proteome Peptide Scanning” (PLoS Biology, 2004):

T1: Boi2 SH3 (BOI2_YEAST), P39969
T1 chain: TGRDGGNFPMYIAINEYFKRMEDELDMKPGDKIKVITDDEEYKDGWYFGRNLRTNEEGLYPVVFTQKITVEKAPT

T2: Rvs167 SH3 (RV167_YEAST), P39743
T2 chain: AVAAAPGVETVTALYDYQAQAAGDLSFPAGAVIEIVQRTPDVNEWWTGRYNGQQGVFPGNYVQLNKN

T3: Yfr024 SH3 (LSB3_YEAST), P43603
T3 chain: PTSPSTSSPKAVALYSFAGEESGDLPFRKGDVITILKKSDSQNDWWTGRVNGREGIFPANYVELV

T4: Yhr016c SH3 (YSC84_YEAST), P32793
T4 chain: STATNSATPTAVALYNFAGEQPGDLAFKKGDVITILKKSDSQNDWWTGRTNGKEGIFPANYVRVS

T5: Boi1 SH3 (BOI1_YEAST), P38041
T5 chain: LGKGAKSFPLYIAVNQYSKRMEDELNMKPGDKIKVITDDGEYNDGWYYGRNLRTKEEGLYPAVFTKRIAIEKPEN


Legend:
Assay in all cases: SPOT array
[1] = target: T1, Boi2 SH3 (BOI2_YEAST), P39969
[2] = target: T2, Rvs167 SH3 (RV167_YEAST), P39743
[3] = target: T3, Yfr024 SH3 (LSB3_YEAST), P43603
[4] = target: T4, Yhr016c SH3 (YSC84_YEAST), P32793
[5] = target: T5, Boi1 SH3 (BOI1_YEAST), P38041

Row | normalised SPOT signal, Boehringer light units (BLU); mean over the file's lines of this peptide [1] | normalised SPOT signal, Boehringer light units (BLU); mean over the file's lines of this peptide [2] | normalised SPOT signal, Boehringer light units (BLU); mean over the file's lines of this peptide [3] | normalised SPOT signal, Boehringer light units (BLU); mean over the file's lines of this peptide [4] | normalised SPOT signal, Boehringer light units (BLU); mean over the file's lines of this peptide [5] | Binder
1 | 23.8 | 62.7 | 70.2 | 334 | 85.7 | QLEPLAPYKFFDII [YLR430W 1690-1703]
2 | 46 | 1050 | 38500 | 18200 | 102 | QNTPPLPPKPKSPH [YCL008C 175-188]
3 | 90.5 | 192 | 676 | 169 | 123 | QRHPKSPVKKPMTS [YCL014W 878-891]
4 | 19.8 | 106 | 516 | 207 | 50.1 | QLTPLLPDKYFDSA [YBL066C 693-706]
5 | 14 | 2.1 | 61.7 | 118 | 103 | QRLPGEPGREQAPN [YOR322C 391-404]
6 | 21.7 | 49.2 | 266 | 169 | 174 | QPKPGNPLRNARLN [YMR191W 37-50]
7 | -0 | 23.6 | 116 | 148 | 14.1 | QNNPPKPQKPVPLN [YOR290C 415-428]
8 | 1420 | 1140 | 4420 | 1440 | 2880 | QMRPYTPLRSPNSR [YOR093C 49-62]
9 | 5900 | 11400 | 28800 | 13600 | 34100 | QLFPVRPVRVRHED [YDL150W 198-211]

The remaining lines, values behind:

Row | Binder | normalised SPOT signal, Boehringer light units (BLU); mean over the file's lines of this peptide [1] | normalised SPOT signal, Boehringer light units (BLU); mean over the file's lines of this peptide [2] | normalised SPOT signal, Boehringer light units (BLU); mean over the file's lines of this peptide [3] | normalised SPOT signal, Boehringer light units (BLU); mean over the file's lines of this peptide [4] | normalised SPOT signal, Boehringer light units (BLU); mean over the file's lines of this peptide [5]
10 | QGQPLPPPRGQVIL [YBR108W 287-300] | 83.2 | 8250 | 22700 | 16000 | 231
11 | QLLPNVPDKVLVPG [YDL220C 391-404] | 49.5 | 67.5 | 69 | 92.2 | 87.7
12 | QKTPPSPAKPKQKT [YBR102C 26-39] | 43.4 | 156 | 365 | 176 | 331
13 | QQLPLEPLKPTATG [YOR329C 404-417] | 27.2 | 45.9 | 257 | 122 | 143
14 | QPAPRIPSKDAIIS [YAL051W 100-113] | 23.6 | 169 | 1610 | 95.9 | 58.1
15 | QGYPRQPQRPQRYH [YDR171W 27-40] | 377 | 620 | 13200 | 8440 | 7410
16 | QPLPTSPSKRFSSL [YOR372C 249-262] | 94.3 | 32.1 | 164 | 249 | 53.8
17 | QILPTKPVKIIEQN [YLR082C 68-81] | 36.5 | 14.6 | 183 | 73.8 | 30.5
18 | QRQPKRPKRYSLLL [YJR147W 216-229] | 194 | 104 | 5420 | 613 | 117
19 | QIFPKKPLRRTVMS [YDR182W 166-179] | 282 | 737 | 35400 | 8570 | 231
20 | QLLPNNPDKNNNGT [YKL159C 151-164] | 52.3 | 0 | 49.9 | 130 | 149
21 | QQKPAIPQKKSFLT [YPR171W 424-437] | 71.9 | 42.5 | 3880 | 101 | 170
22 | QMNPKNPIRLGMAN [YOR227W 657-670] | 118 | 25.7 | 866 | 182 | 679
